Data published in article PMC2686167, “Structure of Human DNA Polymerase κ Inserting dATP Opposite an 8-OxoG DNA Lesion”.

Target: T1, DNA polymerase kappa catalytic core (Polκ19-526) (Homo sapiens, UniProt Q9UBT6 19-526)
T1 sequence: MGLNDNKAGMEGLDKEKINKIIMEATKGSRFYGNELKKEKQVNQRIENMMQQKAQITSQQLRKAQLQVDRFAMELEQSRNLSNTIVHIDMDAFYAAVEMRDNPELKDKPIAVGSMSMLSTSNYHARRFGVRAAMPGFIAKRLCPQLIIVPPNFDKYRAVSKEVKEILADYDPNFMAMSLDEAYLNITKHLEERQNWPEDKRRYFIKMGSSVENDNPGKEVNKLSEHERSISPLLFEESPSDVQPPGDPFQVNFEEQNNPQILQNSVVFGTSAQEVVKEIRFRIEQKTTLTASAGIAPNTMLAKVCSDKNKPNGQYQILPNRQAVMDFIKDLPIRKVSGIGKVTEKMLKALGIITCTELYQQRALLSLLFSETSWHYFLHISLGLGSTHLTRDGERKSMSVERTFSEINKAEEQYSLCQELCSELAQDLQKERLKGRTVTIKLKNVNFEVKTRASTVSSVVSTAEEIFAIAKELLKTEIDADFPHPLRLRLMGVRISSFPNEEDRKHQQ
Experiment: X-ray crystallography (3.2 Å); dATP, Mg2+ (ternary complex); Crystal structure only; cocrystallization conditions not in the material
Conditions: protein: recombinant; tags: N-terminal GST removed with PreScission protease; 5' overhang 5 nt on template; recessed 3' primer end

B1: 13-nt/18-nt primer/template with 8-oxoG (dsDNA)
DNA 1: CCTAGGAGTCCTTCCCCC
DNA 2: GGGGGAAGGACTC
modifications: template G5 = 7,8-dihydro-8-oxoguanine; primer 3' terminal C = dideoxycytidine
B1: binds.
